Measurements reported in paper PMC3078076.

Legend:
Human HP1β CSD (human) [1] = assay: SEC
Human HP1β CSD (human) [2] = assay: crystal structure

| Substance | stoichiometry N (Human HP1β CSD (human) [1]) | stoichiometry N (Human HP1β CSD (human) [2]) | stoichiometry N (Sgo1P1 per two HP1β CSD) (Human HP1β CSD (human) [1]) | stoichiometry N (Sgo1P1 peptide per CSD dimer) (Human HP1β CSD (human) [2]) |
| --- | --- | --- | --- | --- |
| Human HP1β CSD (domain or fragment) | 2 | 2 |  |  |
| Sgo1P1 (from UniProt Q5FBB7 425-443) (peptide) |  |  | 1 | 1 |
